# Changes are numbered by the printed parent chain.
# B1: 5916_A04.PS5-2 (designed binder)
# chain: MGVSDVPRDLEVVAATPTSLLISWDAPAVTVRYYRITYGREVQKYSDLGPLYIYQEFTVPGSKSTATISGLKPGVDYTITVYAVTGSGESPASSKPISINYRTPEDEDGCHHHHHH
# B2: PKE2 Adnectin 2630_D02 (designed binder)
# chain: B1 chain with L48W, Q55N, P104E, E105I, E107K, D108P, G109S, C110Q
# notes: 10Fn3 domain with modified CD loop; the entry includes the His6 tail
# B3: PCSK9-PKE2 tandem 4472_F08 (designed binder)
# PCSK9 domain: MGVSDVPRDLEVVAATPTSLLISWDAPAEGYGYYRITYGETGGNSPVQEFTVPVSKGTATISGLKPGVDYTITVYAVEFDFPGAGYYHRPISINYRTE
# PKE2 domain: GVSDVPRDLEVVAATPTSLLISWDAPAVTVRYYRITYGREVQKYSDLGPLYIYQEFTVPGSKSTATISGLKPGVDYTITVYAVTGSGESPASSKPISINYRTEHHHHHH
# modifications: The real molecule is ONE polypeptide: PCSK9 domain, undisclosed linker F, PKE2 domain. It is given here as two chains because the linker letters are unknown.
# notes: not shown: The inter-domain linker
# B4: 5963_A02.PS5-2 (designed binder)
# chain: MGCSTSGVSDVPRDLEVVAATPTSLLISWDAPAVTVRYYRITYGREVQKYSDLGPLYIYQEFTVPGSKSTATISGLKPGVDYTITVYAVTGSGESPASSKPISINYRTPHHHHHH
# B5: 5963_D01.PS5-2 (designed binder)
# chain: MGVSDVPRDLEVVCATPTSLLISWDAPAVTVRYYRITYGREVQKYSDLGPLYIYQEFTVPGSKSTATISGLKPGVDYTITVYAVTGSGESPASSKPISINYRTPHHHHHH
# How the values were obtained:
# human serum albumin [1] = target: T1, human serum albumin (human, UniProt P02768 25-609); experiment: SPR, albumin immobilized, Adnectin 250 nM
# T1 construct: immobilized on chips or coated on plates elsewhere; also called HSA; HuSA
# rhesus serum albumin [2] = target: T2, rhesus serum albumin (rhesus, UniProt Q28522 17-600); experiment: SPR, albumin immobilized, Adnectin 250 nM
# T2 construct: also called RhSA; Rh-SA
# mouse serum albumin [3] = target: T3, mouse serum albumin (mouse, UniProt P07724 25-608); experiment: SPR, albumin immobilized, Adnectin 250 nM
# T3 construct: also called MSA; MuSA
# rat serum albumin [4] = target: T4, rat serum albumin (rat, UniProt P02770 25-608); experiment: SPR, albumin immobilized, Adnectin 250 nM
# T4 construct: also called Rat SA; RSA
# domain I of HSA = target: T5, domain I of HSA (human, UniProt P02768 25-221, limits assumed); experiment: SPR on HSA domains
# T5 construct: domain: I; also called HSA domain I
# domain III of HSA = target: T6, domain III of HSA (human, UniProt P02768 405-609, limits assumed); experiment: SPR on HSA domains
# T6 construct: domain: III; also called HuSA domainIII
# human serum albumin [5] = target: T1, human serum albumin; experiment: SPR, albumin immobilized
# rhesus serum albumin [6] = target: T2, rhesus serum albumin; experiment: SPR, albumin immobilized
# mouse serum albumin [7] = target: T3, mouse serum albumin; experiment: SPR, albumin immobilized
# cynomolgus serum albumin = target: T7, cynomolgus serum albumin (cynomolgus, UniProt A2V9Z4 25-608); experiment: SPR, albumin immobilized;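 note: biacore CM5 surface plasmon resonance with serum albumin coupled to the chip, 3 min association then 6-10 min dissociation, rates from a 1:1 model fit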
# T7 construct: also called cynoSA; CySA
# rat serum albumin [8] = target: T4, rat serum albumin; experiment: SPR, albumin immobilized;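 note: biacore CM5 surface plasmon resonance with serum albumin coupled to the chip, 3 min association then 6-10 min dissociation, rates from a 1:1 model fit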
# human serum albumin [9] = target: T1, human serum albumin; experiment: hFcRn:HSA competition AlphaScreen, pH 5.5
# human serum albumin [10] = target: T1, human serum albumin; experiment: direct binding ELISA on coated HSA, mono-Adnectin (column HSA EC50 (nM))
# human serum albumin [11] = target: T1, human serum albumin; experiment: SPR, albumin immobilized; remark: listed apart in the source
# rhesus serum albumin [12] = target: T2, rhesus serum albumin; experiment: SPR, albumin immobilized; remark: listed apart in the source
# mouse serum albumin [13] = target: T3, mouse serum albumin; experiment: SPR, albumin immobilized; remark: listed apart in the source
# human PCSK9 [14] = target: T8, human PCSK9 (human, UniProt Q8NBP7 31-692); experiment: PCSK9:LDLR FRET, competition
# T8 construct: also called hPCSK9; huPCSK9
# human PCSK9 [15] = target: T8, human PCSK9; experiment: PCSK9:EGFA FRET 1, competition
# human PCSK9 [16] = target: T8, human PCSK9; experiment: PCSK9:EGFA FRET 2, competition
# human serum albumin [17] = target: T1, human serum albumin; experiment: direct binding ELISA, albumin coated
# rhesus serum albumin [18] = target: T2, rhesus serum albumin; experiment: direct binding ELISA, albumin coated
# mouse serum albumin [19] = target: T3, mouse serum albumin; experiment: direct binding ELISA, albumin coated
# human serum albumin [20] = target: T1, human serum albumin; experiment: SPR, albumin immobilized, HBSP pH 7.4
# rhesus serum albumin [21] = target: T2, rhesus serum albumin; experiment: SPR, albumin immobilized, HBSP pH 7.4
# mouse serum albumin [22] = target: T3, mouse serum albumin; experiment: SPR, albumin immobilized, HBSP pH 7.4
# human serum albumin [23] = target: T1, human serum albumin; experiment: SPR, albumin immobilized, acetate pH 5.5
# rhesus serum albumin [24] = target: T2, rhesus serum albumin; experiment: SPR, albumin immobilized, acetate pH 5.5
# mouse serum albumin [25] = target: T3, mouse serum albumin; experiment: SPR, albumin immobilized, acetate pH 5.5
# human serum albumin [26] = target: T1, human serum albumin; experiment: SPR, albumin immobilized, acetate pH 7.4
# rhesus serum albumin [27] = target: T2, rhesus serum albumin; experiment: SPR, albumin immobilized, acetate pH 7.4
# mouse serum albumin [28] = target: T3, mouse serum albumin; experiment: SPR, albumin immobilized, acetate pH 7.4
# human PCSK9 [29] = target: T8, human PCSK9; experiment: BLI (Octet), biotinylated PCSK9 on tips, no HSA
# human PCSK9 [30] = target: T8, human PCSK9; experiment: BLI (Octet), biotinylated PCSK9 on tips, tandem in complex with excess HSA
binder,measurement,setting,value
B1,koff,human serum albumin [1],0.000148 s⁻¹
same,koff,rhesus serum albumin [2],0.000172 s⁻¹
same,koff,mouse serum albumin [3],0.000307 s⁻¹
same,koff,rat serum albumin [4],0.000547 s⁻¹
B2,binding result,domain I of HSA,no binding
same,binding result,domain III of HSA,no binding
same,Kd,human serum albumin [5],1 nM
same,koff,human serum albumin [5],0.000162 s⁻¹
same,kon,human serum albumin [5],167000 M⁻¹ s⁻¹
same,Kd,rhesus serum albumin [6],1.8 nM
same,koff,rhesus serum albumin [6],0.000362 s⁻¹
same,kon,rhesus serum albumin [6],207000 M⁻¹ s⁻¹
same,Kd,mouse serum albumin [7],13.6 nM
same,koff,mouse serum albumin [7],0.0092 s⁻¹
same,kon,mouse serum albumin [7],678000 M⁻¹ s⁻¹
same,Kd,cynomolgus serum albumin,1.6 nM
same,koff,cynomolgus serum albumin,0.000335 s⁻¹
same,kon,cynomolgus serum albumin,208000 M⁻¹ s⁻¹
same,Kd,rat serum albumin [8],200 nM
same,koff,rat serum albumin [8],0.0299 s⁻¹
same,kon,rat serum albumin [8],150000 M⁻¹ s⁻¹
same,IC50,human serum albumin [9],28.7 nM
same,EC50,human serum albumin [10],9 nM
B3,Kd,human serum albumin [11],67.1 nM
same,koff,human serum albumin [11],0.000324 s⁻¹
same,kon,human serum albumin [11],4820 M⁻¹ s⁻¹
same,Kd,rhesus serum albumin [12],68.7 nM
same,koff,rhesus serum albumin [12],0.000367 s⁻¹
same,kon,rhesus serum albumin [12],5340 M⁻¹ s⁻¹
same,Kd,mouse serum albumin [13],25.5 nM
same,koff,mouse serum albumin [13],0.000344 s⁻¹
same,kon,mouse serum albumin [13],13500 M⁻¹ s⁻¹
same,IC50,human PCSK9 [14],2.5 nM
same,IC50,human PCSK9 [15],7.88 nM
same,IC50,human PCSK9 [16],5.88 nM
same,EC50,human serum albumin [17],55.4 nM
same,EC50,rhesus serum albumin [18],35.2 nM
same,EC50,mouse serum albumin [19],7.3 nM
same,Kd,human serum albumin [20],83.8 nM
same,koff,human serum albumin [20],0.000301 s⁻¹
same,kon,human serum albumin [20],3590 M⁻¹ s⁻¹
same,Kd,rhesus serum albumin [21],71.7 nM
same,koff,rhesus serum albumin [21],0.000346 s⁻¹
same,kon,rhesus serum albumin [21],4820 M⁻¹ s⁻¹
same,Kd,mouse serum albumin [22],26.3 nM
same,koff,mouse serum albumin [22],0.000359 s⁻¹
same,kon,mouse serum albumin [22],13700 M⁻¹ s⁻¹
same,Kd,human serum albumin [23],43.9 nM
same,koff,human serum albumin [23],0.000489 s⁻¹
same,kon,human serum albumin [23],11100 M⁻¹ s⁻¹
same,Kd,rhesus serum albumin [24],110 nM
same,koff,rhesus serum albumin [24],0.000818 s⁻¹
same,kon,rhesus serum albumin [24],7400 M⁻¹ s⁻¹
same,Kd,mouse serum albumin [25],137 nM
same,koff,mouse serum albumin [25],0.0015 s⁻¹
same,kon,mouse serum albumin [25],11000 M⁻¹ s⁻¹
same,Kd,human serum albumin [26],83.9 nM
same,koff,human serum albumin [26],0.000387 s⁻¹
same,kon,human serum albumin [26],4610 M⁻¹ s⁻¹
same,Kd,rhesus serum albumin [27],75.4 nM
same,koff,rhesus serum albumin [27],0.000405 s⁻¹
same,kon,rhesus serum albumin [27],5380 M⁻¹ s⁻¹
same,Kd,mouse serum albumin [28],35 nM
same,koff,mouse serum albumin [28],0.000407 s⁻¹
same,kon,mouse serum albumin [28],11600 M⁻¹ s⁻¹
same,Kd,human PCSK9 [29],0.404 nM
same,koff,human PCSK9 [29],0.000118 s⁻¹
same,kon,human PCSK9 [29],289000 M⁻¹ s⁻¹
same,Kd,human PCSK9 [30],0.902 nM
same,koff,human PCSK9 [30],0.000148 s⁻¹
same,kon,human PCSK9 [30],161000 M⁻¹ s⁻¹
B4,koff,human serum albumin [1],0.000253 s⁻¹
same,koff,rhesus serum albumin [2],0.000313 s⁻¹
same,koff,mouse serum albumin [3],0.000492 s⁻¹
same,koff,rat serum albumin [4],0.000902 s⁻¹
B5,koff,human serum albumin [1],0.000247 s⁻¹
same,koff,rhesus serum albumin [2],0.000313 s⁻¹
same,koff,mouse serum albumin [3],0.000499 s⁻¹
same,koff,rat serum albumin [4],0.000858 s⁻¹

# Source: patent US20200048328A1 (Bristol-Myers Squibb, published 2020)
